Measured values from US20150004189A1 (published 2015).
Values belong to the binder of their own block, whether it stands above or below them.

Assays:
[1] = target: HLA-DQ molecule DQB1*0503 (human); assay: inhibition of radiolabeled peptide binding to purified HLA-DQ
[2] = target: HLA-DQ molecule DQB1*0202 (human); assay: as above
[3] = target: HLA-DQ molecule DQB1*0502 (human); assay: as above
[4] = target: HLA-DQ molecule DQB1*0602 (human); assay: as above
[5] = target: HLA DQ molecule DQB1*0202 (human); assay: inhibition of radiolabeled peptide binding to purified HLA class II
[6] = target: HLA DQ molecule DQB1*0602 (human); assay: as above
[7] = target: HLA DQ molecule DQB1*0503 (human); assay: as above
[8] = target: HLA DQ molecule DQB1*0602 (human); assay: as above; remark: listed apart in the source
[9] = target: HLA DQ molecule DQB1*0503 (human); assay: as above; remark: listed apart in the source
[10] = target: HLA DQ molecule DQB1*0502 (human); assay: as above
[11] = target: T1, HLA-DP DPB1*0401 (human); assay: inhibition of radiolabeled peptide binding to purified HLA-DP
T1 chain 1: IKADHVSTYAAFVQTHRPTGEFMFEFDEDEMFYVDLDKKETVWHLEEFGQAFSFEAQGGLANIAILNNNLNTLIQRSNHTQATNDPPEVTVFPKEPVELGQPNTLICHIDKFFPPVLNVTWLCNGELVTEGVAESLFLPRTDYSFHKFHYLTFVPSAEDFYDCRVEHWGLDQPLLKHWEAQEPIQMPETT
T1 chain 2: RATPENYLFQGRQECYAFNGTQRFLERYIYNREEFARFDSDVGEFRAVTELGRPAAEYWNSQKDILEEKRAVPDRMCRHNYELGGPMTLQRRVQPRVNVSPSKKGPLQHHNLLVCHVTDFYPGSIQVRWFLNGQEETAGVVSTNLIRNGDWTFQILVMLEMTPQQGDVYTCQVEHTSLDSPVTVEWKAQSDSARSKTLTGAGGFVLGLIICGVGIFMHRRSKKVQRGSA

[12] = target: HLA DQ molecule DQB1*0502 (human); assay: inhibition of radiolabeled peptide binding to purified HLA class II; remark: listed apart in the source

Binder: NALSVLDKIYTSPLC [Fel d 1 1 (78-92) peptide NALSVLDKIYTSPLC, Peptide ID 3324.1050]
IC50 [7]: 5.83 µM
IC50 [8]: 1 µM

Binder: DGVWEIKSDKPLKGP [Lol p 2 peptide 51-65 DGVWEIKSDKPLKGP (Peptide ID 3324.1139)]
IC50 [11]: 5.21 µM

Binder: KALWIIFSQNMNIKL [Cup a 1 peptide 66-80 KALWIIFSQNMNIKL (Peptide ID 3324.0604)]
IC50 [11]: 1.73 µM

Binder: NMNIKLKMPLYVAGH [Cup s 1 (96-110) peptide NMNIKLKMPLYVAGH]
IC50 [1]: 11.7 µM
IC50 [2]: 50 µM
IC50 [3]: 20.8 µM
IC50 [4]: 14.5 µM

Binder: GSCWAFSGVAATESA [Der f 1 (131-145) peptide GSCWAFSGVAATESA, Peptide ID 3324.0670]
IC50 [7]: 7.93 µM
IC50 [12]: 9.32 µM
IC50 [8]: 1.33 µM

Binder: DEYVEQVAQYKALPV [Fel d 1 1 (41-55) peptide DEYVEQVAQYKALPV, Peptide ID 3324.1049]
IC50 [12]: 0.337 µM
IC50 [8]: 0.14 µM

Binder: FSGVAATESAYLAYR [Der f 1 (136-150) peptide FSGVAATESAYLAYR, Peptide ID 3324.0666]
IC50 [7]: 4.19 µM
IC50 [12]: 1.21 µM
IC50 [8]: 2.02 µM

Binder: GSDEKNLALSIKYNK [Dac g 2 (11-25) peptide GSDEKNLALSIKYNK]
IC50 [1]: 50 µM
IC50 [2]: 7.2 µM
IC50 [4]: 0.13 µM

Binder: EKALWIIFSQNMNIK [Cup s 1 peptide 86-100 EKALWIIFSQNMNIK (Peptide ID 3324.0615)]
IC50 [11]: 1.54 µM

Binder: EDTNIYNSNEAFKVE [Cup a 1 (316-330) peptide EDTNIYNSNEAFKVE]
IC50 [2]: 7.54 µM
IC50 [3]: 2.42 µM
IC50 [4]: 8.29 µM

Binder: DIYNYMEPYVSKVDP [Dac g 4 peptide 1-15 DIYNYMEPYVSKVDP (Peptide ID 3324.0663)]
IC50 [11]: 23.4 µM

Binder: EKALWIIFSQNMNIK [Cup s 1 (86-100) peptide EKALWIIFSQNMNIK]
IC50 [1]: 1.93 µM
IC50 [2]: 5.56 µM
IC50 [3]: 13 µM

Further lines, results first:

IC50 [1]: 0.161 µM
IC50 [2]: 0.31 µM
IC50 [3]: 0.0079 µM
IC50 [4]: 2.6 µM
Binder: PARLFKAFVLDSDNL [Que a 1 (16-30) peptide PARLFKAFVLDSDNL]

IC50 [5]: 2.44 µM
IC50 [6]: 3.95 µM
Binder: LWEVKSAKPLTGPMN [Lol p 3 peptide, position 51, LWEVKSAKPLTGPMN (Peptide ID 3337.0031)]

IC50 [9]: 33.9 µM
IC50 [5]: 25.7 µM
IC50 [10]: 50 µM
Binder: SDAKTLVLNIKYTRP [Lol p 3 peptide, position 11, SDAKTLVLNIKYTRP (Peptide ID 3324.1142)]

IC50 [11]: 12.3 µM
Binder: IKSDKPLKGPFNFRF [Lol p 2 peptide 56-70 IKSDKPLKGPFNFRF (Peptide ID 3324.1140)]

IC50 [11]: 2.06 µM
Binder: RYANPIAFFRKEPLK [Lol p 11 peptide 111-125 RYANPIAFFRKEPLK (Peptide ID 3324.1138)]

IC50 [9]: 0.347 µM
IC50 [6]: 39.5 µM
Binder: MRNVFDDVVPADFKV [Lol p 2 peptide, position 76, MRNVFDDVVPADFKV (Peptide ID 3337.0030)]

IC50 [11]: 0.917 µM
Binder: ASVIPPARLFKAFVL [Que a 1 peptide 11-25 ASVIPPARLFKAFVL (Peptide ID 3324.1587)]

IC50 [9]: 50 µM
IC50 [5]: 1.8 µM
IC50 [10]: 50 µM
Binder: DAYVATLTEALRVIA [Lol p 5 1 peptide, position 151, DAYVATLTEALRVIA (Peptide ID 3324.1167)]

IC50 [11]: 0.052 µM
Binder: PARLFKAFVLDSDNL [Que a 1 peptide 16-30 PARLFKAFVLDSDNL (Peptide ID 3324.1585)]

IC50 [9]: 0.358 µM
IC50 [6]: 0.846 µM
Binder: GAYETYKFIPSLEAA [Pha a 5 peptide, position 201, GAYETYKFIPSLEAA (Peptide ID 3324.1433)]

IC50 [5]: 0.53 µM
IC50 [6]: 26.6 µM
Binder: DGVWEIKSDKPLKGP [Lol p 2 peptide, position 51, DGVWEIKSDKPLKGP (Peptide ID 3324.1139)]

IC50 [1]: 2.04 µM
IC50 [2]: 0.953 µM
IC50 [3]: 5.31 µM
Binder: ASEVFKAVEAYLVAH [Que a 1 (141-155) peptide ASEVFKAVEAYLVAH]
